In US20100215670A1 (published 2010):

Legend:
[1] = target: T1, Ep-CAM (Epithelial Cell Adhesion Molecule) (UniProt P16422 24-314, limits assumed); test: flow cytometry on NIH:OVCAR-3 cells (Ep-CAM-positive)
T1 construct: whole, on cells; Endogenous antigen on tumour cell lines; also called 17-1A; KSA
T1 sequence (looked up): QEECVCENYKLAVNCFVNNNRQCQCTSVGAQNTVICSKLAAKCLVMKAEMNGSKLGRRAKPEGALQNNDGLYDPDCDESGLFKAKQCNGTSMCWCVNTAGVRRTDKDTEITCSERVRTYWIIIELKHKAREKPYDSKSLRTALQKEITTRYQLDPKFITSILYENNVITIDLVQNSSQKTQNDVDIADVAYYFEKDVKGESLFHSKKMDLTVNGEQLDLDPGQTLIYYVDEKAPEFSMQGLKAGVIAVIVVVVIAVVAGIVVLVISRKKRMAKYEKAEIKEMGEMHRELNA

[2] = target: T1, Ep-CAM (Epithelial Cell Adhesion …); test: flow cytometry on CAL 27 cells (Ep-CAM-positive)
[3] = target: T1, Ep-CAM (Epithelial Cell Adhesion …); test: flow cytometry on CAL 27 cells (Ep-CAM-positive); one representative experiment
[4] = target: T1, Ep-CAM (Epithelial Cell Adhesion …); test: flow cytometry on NIH:OVCAR-3 cells (Ep-CAM-positive); one representative experiment

| Binder | Median Fold (MF) increase [1] | Median Fold (MF) increase [2] | Median Fold (MF) increase [3] | Median Fold (MF) increase [4] |
| --- | --- | --- | --- | --- |
| VB6-845-F-de-bouganin (Fab, also called VB6-845L-F-de-bouganin) chain 1: HHHHHHEVQLVQSGPGLVQPGGSVRISCAASGYTFTNYGMNWVKQAPGKGLEWMGWINTYTGESTYADSFKGRFTFSLDTSASAAYLQINSLRAEDTAVYYCARFAIKGDYWGQGTLLTVSSASTKGPSVFPLAPSSKSTSGGTAALGCLVKDYFPEPVTVSWNSGALTSGVHTFPAVLQSSGLYSLSSVVTVPSSSLGTQTYICNVNHKPSNTKVDKKVEPKSC chain 2: DIQMTQSPSSLSASVGDRVTITCRSTKSLLHSNGITYLYWYQQKPGKAPKLLIYQMSNLASGVPSRFSSSGSGTDFTLTISSLQPEDFATYYCAQNLEIPRTFGQGTKVELKRTVAAPSVFIFPPSDEQLKSGTASVVCLLNNFYPREAKVQWKVDNALQSGNSQESVTEQDSKDSTYSLSSTLTLSKADYEKHKVYACEVTHQGLSSPVTKSFNRGECTRHRQPRGWEQLYNTVSFNLGEAYEYPTFIQDLRNELAKGTPVCQLPVTLQTIADDKRFVLVDITTTSKKTVKVAIDVTDVYVVGYQDKWDGKDRAVFLDKVPTVATSKLFPGVTNRVTLTFDGSYQKLVNAAKADRKALELGVNKLEFSIEAIHGKTINGQEAAKFFLIVIQMVSEAARFKYIETEVVDRGLYGSFKPNFKVLNLENNWGDISDAIHKSSPQCTTINPALQLISPSNDPWVVNKVSQISPDMGILKFKSSK | 130 fold | 63.6 fold |  |  |
| VB6-845-F1R-de-bouganin (Fab, also called F1R linker construct) chain 1: HHHHHHEVQLVQSGPGLVQPGGSVRISCAASGYTFTNYGMNWVKQAPGKGLEWMGWINTYTGESTYADSFKGRFTFSLDTSASAAYLQINSLRAEDTAVYYCARFAIKGDYWGQGTLLTVSSASTKGPSVFPLAPSSKSTSGGTAALGCLVKDYFPEPVTVSWNSGALTSGVHTFPAVLQSSGLYSLSSVVTVPSSSLGTQTYICNVNHKPSNTKVDKKVEPKSC chain 2: DIQMTQSPSSLSASVGDRVTITCRSTKSLLHSNGITYLYWYQQKPGKAPKLLIYQMSNLASGVPSRFSSSGSGTDFTLTISSLQPEDFATYYCAQNLEIPRTFGQGTKVELKRTVAAPSVFIFPPSDEQLKSGTASVVCLLNNFYPREAKVQWKVDNALQSGNSQESVTEQDSKDSTYSLSSTLTLSKADYEKHKVYACEVTHQGLSSPVTKSFNRGECTRHRRKRSVYNTVSFNLGEAYEYPTFIQDLRNELAKGTPVCQLPVTLQTIADDKRFVLVDITTTSKKTVKVAIDVTDVYVVGYQDKWDGKDRAVFLDKVPTVATSKLFPGVTNRVTLTFDGSYQKLVNAAKADRKALELGVNKLEFSIEAIHGKTINGQEAAKFFLIVIQMVSEAARFKYIETEVVDRGLYGSFKPNFKVLNLENNWGDISDAIHKSSPQCTTINPALQLISPSNDPWVVNKVSQISPDMGILKFKSSK | 112 fold | 55 fold |  |  |
| VB6-845-CB1-CD-de-bouganin (Fab, also called CB1-CD construct) chain 1: HHHHHHEVQLVQSGPGLVQPGGSVRISCAASGYTFTNYGMNWVKQAPGKGLEWMGWINTYTGESTYADSFKGRFTFSLDTSASAAYLQINSLRAEDTAVYYCARFAIKGDYWGQGTLLTVSSASTKGPSVFPLAPSSKSTSGGTAALGCLVKDYFPEPVTVSWNSGALTSGVHTFPAVLQSSGLYSLSSVVTVPSSSLGTQTYICNVNHKPSNTKVDKKVEPKSC chain 2: DIQMTQSPSSLSASVGDRVTITCRSTKSLLHSNGITYLYWYQQKPGKAPKLLIYQMSNLASGVPSRFSSSGSGTDFTLTISSLQPEDFATYYCAQNLEIPRTFGQGTKVELKRTVAAPSVFIFPPSDEQLKSGTASVVCLLNNFYPREAKVQWKVDNALQSGNSQESVTEQDSKDSTYSLSSTLTLSKADYEKHKVYACEVTHQGLSSPVTKSFNRGECQGVGFLGTQFFYNTVSFNLGEAYEYPTFIQDLRNELAKGTPVCQLPVTLQTIADDKRFVLVDITTTSKKTVKVAIDVTDVYVVGYQDKWDGKDRAVFLDKVPTVATSKLFPGVTNRVTLTFDGSYQKLVNAAKADRKALELGVNKLEFSIEAIHGKTINGQEAAKFFLIVIQMVSEAARFKYIETEVVDRGLYGSFKPNFKVLNLENNWGDISDAIHKSSPQCTTINPALQLISPSNDPWVVNKVSQISPDMGILKFKSSK |  |  | 68 fold | 110 fold |
